Literature values as cited in paper PMC8694941 (RSC Advances, 2021).

Details: commonly used comparator tracer

[^68Ga]Ga-DOTA-c(RGDfK) (head to tail)
partition coefficient (log D): around −3.43
